Assay [1] addresses T1, human multimeric vWF (purified vWF HaemateP) (human, UniProt P04275 764-2813).
T1 construct: vWF purified from HaemateP by size-exclusion chromatography; also called multimeric target vWF; purified HaemateP
Description: Gyrolab solution affinity, 5 pM caplacizumab pre-incubated with vWF dilution series; lyophilized formulation. The source says: (§1) This assay measures the inhibition of ristocetin-induced binding of von Willebrand Factor (vWF) to bound platelet by caplacizumab. [0395] c) The RICO assay is used as pharmacodynamics marker for the pharmacological activity of caplacizumab. The assay measures the rate and degree to which human lyophilized platelets form aggregates after the addition of the antibiotic ristocetin, which mimics shear-induced activation of vWF. [0396] d) Gyrolab-based assay analyses the kinetic interactions of caplacizumab with its multimeric target vWF and determines the affinity constant of caplacizumab to human multimeric vWF. Briefly, affinity determination on the Gyroloab platform was established as follows: Gyrolab Bioaffy 1000 CDs were used. As capture tool, 3000 nM in-house biotinylated purified vWF (purified HaemateP using size-exclusion chromatography) was applied on the columns which were pre-packed with streptavidin-coated beads. Filter-sterilized D-PBS containing 0.01% Tween-20 was used for dilution of the capture tool. […] Free caplacizumab was detected with 50 nM AlexaFluor647-labeled anti-caplacizumab monoclonal antibody diluted in Rexxip F buffer (commercially available detection buffer). […]

Assay [2] has as its target T1, human multimeric vWF (purified vWF …). The experiment in a line: Gyrolab solution affinity, 5 pM caplacizumab pre-incubated with vWF dilution series; liquid formulation.
From the text: as §1

In general, Kd refers to the constant that tells how readily two partners part at equilibrium.

B1: 12A02H1-3a-12A02H1 (ALX-0081) (VHH)
chain: EVQLVESGGGLVQPGGSLRLSCAASGRTFSYNPMGWFRQAPGKGRELVAAISRTGGSTYYPDSVEGRFTISRDNAKRMVYLQMNSLRAEDTAVYYCAAAGVRAEDGRVRTLPSEYTFWGQGTQVTVSSAAAEVQLVESGGGLVQPGGSLRLSCAASGRTFSYNPMGWFRQAPGKGRELVAAISRTGGSTYYPDSVEGRFTISRDNAKRMVYLQMNSLRAEDTAVYYCAAAGVRAEDGRVRTLPSEYTFWGQGTQVTVSS
notes: Bivalent Nanobody: a single chain of two 12A02H1 domains joined by an AAA linker; It was tested as samples from different formulations and storage conditions; also called caplacizumab; anti-vWF Nanobody caplacizumab
Take B1: the Kd came out at 4.46 pM in assay [1] and 6.84 pM in assay [2].

For the origin of these results see patent US20190010249A1 (Ablynx, published 2019).
